Test results reported in paper doi:10.1101/570390.

Target: mature KLK4 from recombinant pro-KLK4 expressed in Sf9 cells, activated with thermolysin (human) (UniProt Q9Y5K2)
Assay: enzyme inhibition assay

Chain of UniProt Q9Y5K2 (Q9Y5K2 31-254): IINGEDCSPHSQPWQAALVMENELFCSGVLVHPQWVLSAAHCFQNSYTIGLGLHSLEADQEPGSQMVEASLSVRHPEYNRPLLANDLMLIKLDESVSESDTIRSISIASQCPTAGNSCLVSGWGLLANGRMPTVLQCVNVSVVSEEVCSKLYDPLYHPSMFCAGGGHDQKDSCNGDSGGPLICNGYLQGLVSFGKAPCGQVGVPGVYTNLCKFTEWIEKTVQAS

| Substance | Ki [nM] |
| --- | --- |
| SFTI-FCQR(Asn14), bicyclic (peptide) | 0.04 |
| SFTI-FCQR(Asn14)[1,14], monocyclic (1,14-acyclic backbone, disulfide-bridged) (peptide) | 3.48 |
